Data published in publication PMC7382286 (2020).
Changes are numbered by the printed parent chain.

Tests used:
[1] = biological target: T1, biotinylated recombinant human Arginase 2 (human, UniProt P78540 23-354, biotin (biotinylated; site not stated)); assay: BLI
T1 chain: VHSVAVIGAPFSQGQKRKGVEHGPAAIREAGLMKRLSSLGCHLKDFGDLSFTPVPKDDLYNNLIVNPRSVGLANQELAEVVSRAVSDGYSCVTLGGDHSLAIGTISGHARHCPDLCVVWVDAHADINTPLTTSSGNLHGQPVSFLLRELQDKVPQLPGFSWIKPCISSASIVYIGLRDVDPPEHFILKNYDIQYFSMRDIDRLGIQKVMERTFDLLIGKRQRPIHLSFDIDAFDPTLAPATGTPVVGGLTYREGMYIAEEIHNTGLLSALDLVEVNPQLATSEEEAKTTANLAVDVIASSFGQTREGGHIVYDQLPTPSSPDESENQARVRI

[2] = biological target: T1, biotinylated recombinant human Arginase …; assay: BLI

B1: Fab C0021181 (Fab, V domains shown)
VH: EVQLLESGGGLVRPGGSLRLSCAASEFTFRYDYHVWVRQAPGKGLEWVSAISGSGGSTYYADSVKSRFTISRDNSKNTLYLQMNSLRAEDTAVYYCARLRADLGLYMDLWGRGTLVTVSS
VL: QSVLTQPPSVSAAPGQKVAVSCSGSSSNIGSHYVSWYQQLPGTAPKLLIYDNSERTSGIPDRFSGSKSGTSATLGITGLQTGDEADYYCGTWDELTSNLVFGGGTRLTVL
A Kd [1] of 0.29 nM and a koff [2] of 4.2e-05 s⁻¹ were found for B1 in this work.

B2: Fab C0021177 (Fab, V domains shown)
VH: EVQLLESGGGLVQPGGSLRLSCAASGFTFRYEVAAWVRQAPGKGLEWVSAISGPAPKGYYADSVKGRFTISRDNSKNTLYLQMNSLRAEDTAVYYCARLRADLGLYMDLWGRGTLVTVSS
VL: QSELTQPPTASAAPGQKVTISCSGSSSNIGNHYVSWYQQLPGTAPKLLIYDTTVLSSGIPDRFSGSKSGTSATLGITGLQTGDEADYYCGTWDELTSNLVFGGGTKLTVL
A Kd [1] of 0.17 nM and a koff [2] of 3.5e-05 s⁻¹ were found for B2 in this work.

B3: Fab C0021133 (Fab, V domains shown)
VH: B1 VH with R13Q, E26G, Y33H, S66G
VL: B2 VL with E3V, T9S, A10V, I20V
A Kd [1] of 2.1 nM and a koff [2] of 0.00045 s⁻¹ were found for B3 in this work.

B4: Fab C0021139 (Fab, V domains shown)
VH: B1 VH with R13Q, E26G, R30Q, H34Q, S66G
VL: B1 VL with A19T, V20I, S31N, R106K
A Kd [1] of 4.4 nM and a koff [2] of 0.00087 s⁻¹ were found for B4 in this work.

B5: Fab C0021128 (Fab, V domains shown)
VH: B2 VH with R30Q, A55I
VL: QSVLTQPPSVSAAPGQKVTISCSGSSSNIGNHYVSWYQQLPGTAPKLLIYDNAIESSGIPDRFSGSKSGTSATLGITGLQTGDGADYYCGTWDSNLSALVFGGGTKLTVL
A Kd [1] of 2.5 nM and a koff [2] of 0.00067 s⁻¹ were found for B5 in this work.

B6: Fab C0021158 (Fab, V domains shown)
VH: B2 VH with A55I
VL: B1 VL with A19T, V20I, S31N, S57A, I59V, R106K
A Kd [1] of 0.17 nM and a koff [2] of 4.5e-05 s⁻¹ were found for B6 in this work.
